The results in this text go back to patent US20150140018A1 (MEDICAL AND BIOLOGICAL LABORATORIES, published 2015).

The test concerns the target T1, CXADR protein on human prostate cancer cells (LNCaP-CR, DU-145) (human, UniProt P78310 20-365).
T1 construct: whole, on cells; Endogenous CXADR; also called coxsackievirus and adenovirus receptor; CAR
T1 sequence (looked up): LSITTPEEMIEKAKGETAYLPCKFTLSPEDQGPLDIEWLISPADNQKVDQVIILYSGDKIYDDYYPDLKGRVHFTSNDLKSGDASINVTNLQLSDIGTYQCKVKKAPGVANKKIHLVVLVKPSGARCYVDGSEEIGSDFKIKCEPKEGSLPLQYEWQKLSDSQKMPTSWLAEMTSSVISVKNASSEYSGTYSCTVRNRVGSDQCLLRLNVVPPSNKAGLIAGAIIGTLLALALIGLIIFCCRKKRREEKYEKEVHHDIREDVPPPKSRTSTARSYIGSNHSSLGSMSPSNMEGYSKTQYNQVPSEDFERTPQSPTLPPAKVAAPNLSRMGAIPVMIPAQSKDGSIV
Nature of the test: flow cytometry, purified antibody at 5 ug/mL on LNCaP-CR and DU-145 cells that express CXADR.

B1: anti-CXADR antibody 7F8A (antibody, V domains shown)
VH: DVQLQESGPGLVKPSQTVSLTCTVTGYSITNGNHWWNWIRQVSGSKLEWIGYINSSGSTDSNPSLKSRISITRDTSKNQLFLQLNSVTIEDIATYYCARDDYYFDYWGQGTTLTVSS
VL: DIQMTQSPASLSASVGETVTITCRASENIDSYLAWYQQKQGKSPQLLVYAATLLADGVPSRFSGSGSGTQYSLKINSLQSEDVARYYCQHYYSTPLTFGAGTKLELKR
notes: also called 7F8A clone
For the molecule B1, the binding result was “binds”.
